The data set in a line: amyloid nucleation score (Sup35N fusion, yeast selection) (log enrichment); library NNK1; higher = more nucleation; inactive = no reads after selection. In outline: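 Sup35N was fused to peptides of 20 random codons and expressed in psi-negative yeast, which were induced with 100 μM copper sulfate for 24 hours and then grown on medium lacking adenine and uracil for 7 days at 30°C. Plasmid inserts from input and output were sequenced on Illumina. The nucleation score is the DiMSum log enrichment of output over input reads, centred on the mode score of non-aggregating sequences. Sequences with under 100 input reads were left out, and random libraries had three technical output replicates.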

± gives the uncertainty stated by the source.

For the substance MSNIVALHCGSFFTDYECIW, the amyloid nucleation score stood at 7.608 ± 0.046.

YAPWGGKNSRYAGSVM showed an amyloid nucleation score of 0.701 ± 0.33.

The substance VKRHNLLCWRFMDFTINLGG returned an amyloid nucleation score of 4.01 ± 0.13.

WRFEYWFRGIHYCIYNYFC returned an amyloid nucleation score of -0.011 ± 0.89.

Take KSFSIYTVIVV: the amyloid nucleation score was found to be 1.2 ± 0.26.

In the case of TCLWSYSNAFENPR, the amyloid nucleation score stood at 1.85 ± 0.31.

With ASLVDVGSP, the amyloid nucleation score was 0.215 ± 0.32.

Take KVVTGLIYFWCIWCFGTLRV: the amyloid nucleation score was 0.431 ± 0.9.

Substance GGFWPICYWNLRASEPLQDS gave an amyloid nucleation score of 0.173 ± 0.63.

Substance LLLTHNLVNADDSVDSMQHK came in with an amyloid nucleation score of 0.086 ± 0.24.

Substance VNDQAGRLGD returned an amyloid nucleation score of 0.904 ± 0.61.

On to MWNRFWLLDALLWGNYLSQS, for which the amyloid nucleation score worked out at 0.043 ± 0.33.

The substance RGSKRTVKLNSGVRVKSYDW returned an amyloid nucleation score of 0.373 ± 1.4.

SMAPGDSS had an amyloid nucleation score of 0.02 ± 0.34.

FASRVCMRSNQKIPAWQLWS had an amyloid nucleation score of -0.359 ± 0.29.

With ANQRSAGYPSGYKCTYYNRS, the amyloid nucleation score was found to be 0.838 ± 0.41.

Take VLLADVCLSVERGKVTDPGS: the amyloid nucleation score came out at 1.25 ± 0.58.

In turn, FMSYLNYRQCPPVLDEEVVP came in with an amyloid nucleation score of 0.241 ± 1.

YLQGENNWRVVGQRLSTSPA displayed an amyloid nucleation score of 0.03 ± 0.4.

Consider GLQEVCWC, for which the amyloid nucleation score is -1.67 ± 2.4.

For VVYIHFAII, the amyloid nucleation score amounted to 0.439 ± 0.69.

The substance TTIRYNVLRAPMLCIIILMN displayed an amyloid nucleation score of -0.607 ± 0.58.

Regarding HSLGLANYFTSHEGLVGTF, the amyloid nucleation score result is “inactive”.

AISDFMGHS yielded an amyloid nucleation score of -0.825 ± 1.1.

For PSTRRVGDWDFLTSSTGRTM, the amyloid nucleation score is -0.403 ± 0.35.

KSYLLGDGTFNSCTW came in with an amyloid nucleation score of 0.107 ± 0.69.

Substance KCYGVETTYALA gave an amyloid nucleation score of 0.875 ± 0.97.

Substance CLPNSYGAV had an amyloid nucleation score of 0.435 ± 0.53.

On to GQHSFGAECTVQSCGWGCRW, for which the amyloid nucleation score was 1.33 ± 0.34.

The substance FHMENALISLGCSSGLRQMA came in with an amyloid nucleation score of 0.803 ± 0.54.

GDFKTRLFSCLDSRLILGRG showed an amyloid nucleation score of -0.485 ± 1.5.

With VCLSC, the amyloid nucleation score was 2.03 ± 0.41.

Substance PLYSYADEVVDGKGSCERNC came in with an amyloid nucleation score of 0.946 ± 0.5.

SDFNLDSSGMKRVKSRV showed an amyloid nucleation score of 0.817 ± 0.69.

Regarding SLSRMVGCTTVF, the amyloid nucleation score result is “inactive”.

TCRLKLVFLNVTVKSKFCVL: the amyloid nucleation score is -0.362 ± 0.76.

Consider RDRCT, for which the amyloid nucleation score was 0.49 ± 0.36.

For MCVLYMGGSFRF, the amyloid nucleation score worked out at 1.58 ± 0.44.

Substance CTRVTSRAM yielded an amyloid nucleation score of -0.757 ± 0.9.

In the case of IYVWKTQ, the amyloid nucleation score was -0.242 ± 0.5.

Take LVAYVTRRFVLCM: the amyloid nucleation score is -1.42 ± 1.8.

In turn, YSGPGAQFIAMLNKLWCTAH showed an amyloid nucleation score of 1.23 ± 0.24.

VIKMFRRSDDIVVSKPLRE yielded an amyloid nucleation score of -0.3 ± 0.5.

Turning to FASDRLYWTWK, the amyloid nucleation score amounted to 0.255 ± 0.53.

RFRVCCNRSKRGGYGPNVER showed an amyloid nucleation score of -0.363 ± 0.67.

RHLRVTFNSLSWRKMKAGVV displayed an amyloid nucleation score of -0.314 ± 0.86.

MFLYLLVVTP: the amyloid nucleation score entry was “inactive”.

Substance DLSWSGTFSAGHGNMNFTKS displayed an amyloid nucleation score of 2.53 ± 0.15.

The substance WAYYCYP yielded an amyloid nucleation score of -2.01 ± 2.4.

Consider YGFRQGTTSDNGTFTRIVHM, for which the amyloid nucleation score is -0.336 ± 0.5.

On to RLYPQYLNFKVCKFGSLDGG, for which the amyloid nucleation score was -0.836 ± 0.31.

LNFFVPA returned an amyloid nucleation score of -1.38 ± 2.4.

Take MYFVRVSSDA: the amyloid nucleation score came out at 0.351 ± 0.54.

Turning to SKSRMLPIGTRGCRNSQFVE, the amyloid nucleation score was 1.06 ± 0.63.

The substance RTGPLSVASGAVPYGYQPWL had an amyloid nucleation score of -0.203 ± 0.62.

The substance NLPSSKKVLPCFFLRSIYGC came in with an amyloid nucleation score of 0.9 ± 0.4.

With TLCQCKLT, the amyloid nucleation score is -0.286 ± 0.67.

The substance RLVEQFRGMLLWY showed an amyloid nucleation score of -0.673 ± 0.64.

In the case of SNEVEGLFLKLYNFVPVRQW, the amyloid nucleation score was 0.148 ± 0.26.

In the case of SVDVTRIIMIVVCRFKMWEL, the amyloid nucleation score was determined as 0.736 ± 0.32.

Consider QDFNNEFFFSCRAAAKTTNA, for which the amyloid nucleation score was -1.54 ± 1.7.

In turn, TFLYVWSTSDSYKK had an amyloid nucleation score of 0.148 ± 0.61.

Substance MNPTFILRTGSRGGDYWS yielded an amyloid nucleation score of 0.206 ± 0.52.

In the case of NRRDDNQCVSWIGVKAKVLS, the amyloid nucleation score amounted to 0.564 ± 0.43.

Turning to LTASLTAGVTRWVLRRFVYH, the amyloid nucleation score is 0.588 ± 0.77.

As to GRSRTRTRLLPGSEGGYDRP, the amyloid nucleation score is -1.64 ± 0.98.

NSFSDAYKIVYLHIYRSGGI showed an amyloid nucleation score of -0.448 ± 0.6.

For YNTRTRILWARVVNRVINLW, the amyloid nucleation score came to 4.95 ± 0.072.

In turn, YMKLRCMK yielded an amyloid nucleation score of 0.019 ± 0.6.

LEGITELWRVMSYLMMTMVR showed an amyloid nucleation score of -0.457 ± 1.1.

As to LTYLMWRRYSNIFQTSCSCL, the amyloid nucleation score came to 0.499 ± 0.59.

The substance NNLMFNYSGHMVSVKAHSSG yielded an amyloid nucleation score of 0.776 ± 0.43.

For the substance EMFHVVGSRLMPVRMVRNQC, the amyloid nucleation score entry is “inactive”.

With CIISGMLWLAMKRTMGIELW, the amyloid nucleation score was determined as 2.88 ± 0.18.

In turn, RIVISCRFEYGLGVGSSGVP returned an amyloid nucleation score of 0.156 ± 1.6.

On to ATGTSWYVPGRVGLCGYWLI, for which the amyloid nucleation score was -0.153 ± 0.23.

As for LYTLRLGI, the amyloid nucleation score is -0.134 ± 0.84.

Turning to NSEMCWFFNMISSTLAHLLV, the amyloid nucleation score was 1.75 ± 0.31.

On to SNWYRPTDAARLSLSYSRGG, for which the amyloid nucleation score is -0.883 ± 1.1.

With SYPESTTRNF, the amyloid nucleation score was -0.209 ± 0.39.

In turn, LLSMLRCYWVSRLFV displayed an amyloid nucleation score of -0.079 ± 0.65.

In turn, KWVKEALIA displayed an amyloid nucleation score of -0.463 ± 0.73.

In turn, ILVSQCRRLVYFVGSVCFST registered an amyloid nucleation score of 0.622 ± 0.53.

Turning to MLQFFVSWGILVKICVWTVG, the amyloid nucleation score entry was “inactive”.

AFMYYTGATIMHLQSANGGL showed an amyloid nucleation score of 2.27 ± 0.17.

FLGMIFTELSINMKVSRRP returned an amyloid nucleation score of -1.12 ± 1.2.

For the substance LVYRCASRRVSNSFMLCW, the amyloid nucleation score is -0.542 ± 0.62.

As for RRPIGMACGDGRVYFWDHTA, the amyloid nucleation score was -0.036 ± 0.47.

HGMIRWYSYTSCHSYKVSGH gave an amyloid nucleation score of -0.021 ± 0.33.

With LNNLWNLGLTGLQGGNMYKI, the amyloid nucleation score result is “inactive”.

VDLDSVR displayed an amyloid nucleation score of -0.236 ± 0.48.

For WNCKLTMADGGSAKVAPLSS, the amyloid nucleation score was determined as 0.38 ± 0.32.

As to PRVQRPPKVRTAELTTGPSQ, the amyloid nucleation score is -0.423 ± 0.37.

Take SKMCY: the amyloid nucleation score was -0.692 ± 0.43.

The substance IPVWTYIVWAQESILQRGCW displayed an amyloid nucleation score of 0.217 ± 0.46.

KRCSYRS registered an amyloid nucleation score of 0.07 ± 0.6.

Substance LIQWENGTH registered an amyloid nucleation score of -0.672 ± 0.34.

On to VSYQGTSAFDGSRKVVGPTL, for which the amyloid nucleation score stood at 0.353 ± 0.54.

RIRTIPFAPRNESPRCIGKF registered an amyloid nucleation score of -1.5 ± 0.86.

Take FHCTNSMVMLGRHATMLFFY: the amyloid nucleation score was found to be 5.92 ± 0.095.

For RLVIRSGTNAGMVGRSWGGC, the amyloid nucleation score is -0.151 ± 0.3.

PYVGHVGVKRDSNCK yielded an amyloid nucleation score of 0.206 ± 1.1.

On to SYLGCVHWSRRTDLVTFFDF, for which the amyloid nucleation score was determined as 0.495 ± 0.27.

PVHVLYFTWMNQECCGHNYL returned an amyloid nucleation score of 6.5 ± 0.07.

Regarding ILSLNCFYRTWRLEMNKSYK, the amyloid nucleation score came out at 1.94 ± 0.52.

As to QLKGSSWYYENRVGRSGRGV, the amyloid nucleation score came to 0.698 ± 0.49.

The substance YNNLIPTYHHWGSFHMV had an amyloid nucleation score of 1.32 ± 0.68.

As for YIIVFDVNWFVKFGCFPRGS, the amyloid nucleation score result is “inactive”.

ASLTDVYIDELRLSNEGTWN came in with an amyloid nucleation score of 1.94 ± 0.65.

Take YILLLFSVVWIKKFGDCSCA: the amyloid nucleation score was -0.048 ± 0.35.

Take HRRNMAKC: the amyloid nucleation score result was “inactive”.

With NVVSYFHMAFGWCFNLW, the amyloid nucleation score worked out at 1.94 ± 0.26.

GDNACLLSSIEDALDSVQVL: the amyloid nucleation score was 0.99 ± 0.67.

In turn, CRRRPSSDELSVLWDAEGRY showed an amyloid nucleation score of 0.009 ± 0.66.

The substance WVQFLDMGAVMKIWLVKCFP showed an amyloid nucleation score of -0.485 ± 1.1.

YMIWTIFNMVSIGRPQFLRL returned an amyloid nucleation score of -0.716 ± 0.56.

Take ISFCDGRSCIDLIAVRCFRG: the amyloid nucleation score was -0.909 ± 0.26.

The substance VSRWSGEEPISCSYGTLR returned an amyloid nucleation score of -0.164 ± 0.6.

Turning to WCRRWFLLYWVCAETKFGSG, the amyloid nucleation score was -0.367 ± 0.52.

Take TAYWIVYRVKGLLRFFSRLA: the amyloid nucleation score was found to be 0.011 ± 0.36.

Regarding CHTTKNYVYCVCMQFVTHQ, the amyloid nucleation score was determined as 6.725 ± 0.045.

Turning to VPYRFPRMVKYGSMDFTSLE, the amyloid nucleation score was found to be 4.03 ± 0.094.

As for DRRGRRYKVRRVCMVMESLG, the amyloid nucleation score amounted to 0.703 ± 0.58.

VTLPSAMQGSHFTWGPNVAF showed an amyloid nucleation score of -0.422 ± 1.2.

KSPRVSVGTASVSWRKKFTW came in with an amyloid nucleation score of 0.2 ± 0.74.

Turning to LACTYLCWALC, the amyloid nucleation score is -1.32 ± 0.86.

Take LAITDKCSRALSLLSCPDF: the amyloid nucleation score turned out to be 0.265 ± 0.63.

For the substance GGCRIYLSSRM, the amyloid nucleation score is -0.583 ± 0.46.

Consider GRAFG, for which the amyloid nucleation score is -0.557 ± 2.1.

For the substance VKQSST, the amyloid nucleation score is 0.212 ± 0.66.

Consider LYVDH, for which the amyloid nucleation score result is “inactive”.

MFFGWLFHYLLSSTYMFVSL showed an amyloid nucleation score of -0.266 ± 0.72.

For IGDKYGYCKYGRYADGQVIS, the amyloid nucleation score result is “inactive”.

As to WYRYEPLVMTRQMSGVGPMR, the amyloid nucleation score came to 0.124 ± 0.33.

Take DMGSHIARSTKMVPICGGSR: the amyloid nucleation score was -0.259 ± 1.4.

As for DVVLVYGTITGSWVQSVWEG, the amyloid nucleation score was determined as 0.553 ± 0.69.

With VPENLKRMRVRAVSLGMSGE, the amyloid nucleation score was determined as 1.44 ± 0.5.

In the case of LALFIDWQ, the amyloid nucleation score worked out at 1.53 ± 0.53.

For the substance PERVVYANATAYRLLVKDAL, the amyloid nucleation score turned out to be 0.247 ± 0.33.

In the case of NSINFFNMFVYWL, the amyloid nucleation score is 6.26 ± 0.056.

The values are drawn from the supplement of paper PMC12042874.
